{
  "source": "the nanobody polyreactivity screen of Harvey et al. (2022)",
  "data": [
    {"test": "yeast display, Sf9 membrane polyspecificity reagent, FACS + sequencing; frameworks hold sequencing errors", "in_short": "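Nanobodies from a synthetic yeast display library (Saccharomyces cerevisiae BJ5465), induced 36–48 hours with galactose, were stained 1 hour at 4 °C with 10% biotinylated, detergent-solubilized Sf9 membrane reagent, enriched on streptavidin microbeads, then FACS-sorted. Anti-HA (expression) and streptavidin (reagent binding) fluorescence set low and high (top ~1%) gates. Polyreactivity labels come from the gate of origin. Genes were colony-PCR amplified, MiSeq 2 × 250 sequenced and filtered by CDR length.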", "values": [
      {"sequence": "QVQLVESGGGLVQAGGSLRLSCAASGRTYSNAMGWYRQAPGKERELVAAITWSGGRTYYADSVKGRFTISRDNAKNTVYLQMNSLKPEDTAVYYCAADSIWWPLWFDYWGQGTQVTVSS", "polyreactivity (PSR sort gate)": "high polyreactivity"},
      {"sequence": "QVQLVESGGGLVQAGGSLRLSCAASGRTYTFYARGWYRQAPGKERELVAAITWGGGSTYYADSVKGRFTISRDNAKNTVYLQMNSLKPEDTAVYYCAAEWYEPVGSRWYSPYYYWGQGTQVTVSS", "polyreactivity (PSR sort gate)": "high polyreactivity"},
      {"sequence": "QVQLVESGGGLVQAGGSLRLSCAASGSARYAMGWYRQAPGKERELVAAISRRGGSTFYADSVKGRFTISRDNAMNTVYLQMNSLKPEDTAVYYCAADGRISYDYWGQGTQVTVSS", "polyreactivity (PSR sort gate)": "low polyreactivity"},
      {"sequence": "QVQLVESGGGLVQAGGSLRLSCAASGSFFASYSMGWYRQAPAKERELVAAITYSGSRTYYADSVKGRFTISRDNAKNTVYLQMNSLKPEDSAVYYCNADYYWYPYEDDYWGQGTQVTVSS", "polyreactivity (PSR sort gate)": "low polyreactivity"},
      {"sequence": "QVQLVESGGGLVQAGGSLRLSCAASGSIAGNAMGWYRQAPGKERELVAAITFRGSGTYYADSVKGRFTISRDNAKNTVYLQMNSLKPEDTAVDYCNAYRRGLSVYGYWGQGTQVTVSS", "polyreactivity (PSR sort gate)": "high polyreactivity"},
      {"sequence": "QVQLVESGGGLVQAGGSLRLSCAASGSIAMGWYRQAPGKERELVATISSSGGSTYYADSVKGRFTISRDNAKNTVYLQMNSLKPEDTAVYYCNTPQYLGPLYSEFDYWGQGTQVTVSS", "polyreactivity (PSR sort gate)": "low polyreactivity"},
      {"sequence": "QVQLVESGGGLVQAGGSLRLSCAASGSIAMGWYRQAPGKERELVATISSSGGSTYYADSVKGRFTISRDNAKNTVYLQMNSLKPEDTAVYYCNTQAVYGGGEGGYDYWGQGTQLTVSS", "polyreactivity (PSR sort gate)": "low polyreactivity"},
      {"sequence": "QVQLVESGGGLVQAGGSLRLSCAASGSICERYAMGWYRQAPGKERELVAAISWRGTRTFYADSVKGRFTISRDNAKNTVYLQMNSLKPEDTAVYYCAADSRPPKYDYWGQGTQVTVSS", "polyreactivity (PSR sort gate)": "high polyreactivity"},
      {"sequence": "QVQLVESGGGLVQAGGSLRLSCAASGSICISYAMGWYRPAPGKERELVAAINYSGGSTYYADSVKGRFTISRDNAKNTVYLQMNSLKPDDTAVYYCAKRSTYRYYGYKLRDYWGQGTQVTVSS", "polyreactivity (PSR sort gate)": "low polyreactivity"},
      {"sequence": "QVQLVESGGGLVQAGGSLRLSCAASGSICRLYAMGWYRPARGKEREFVAGITRRTGSTYYADSVKWRFTISRDNAKNTVYLQMTSLKPEETAVYYCAKRDARATPFGYWGLGTQVTVSS", "polyreactivity (PSR sort gate)": "high polyreactivity"},
      {"sequence": "QVQLVESGGGLVQAGGSLRLSCAASGSICSLYAKGWYRQEPGKERELVAAISSSGTSTYYADSVKGRFTISRDNSKNTVYLQMNSLKLEDTAVYYCNAYRRRATYNGDYWGQGTQLTVSS", "polyreactivity (PSR sort gate)": "high polyreactivity"},
      {"sequence": "QVQLVESGGGLVQAGGSLRLSCAASGSICSSYAMGWYRQAPGKERELVAAISGSGGSTFYADSVKGRFTISRDNAKNTVYLQMNSLKPEDTAVYYCAARYYWYGRAGKKHASYYYWGQGTQVTVSS", "polyreactivity (PSR sort gate)": "high polyreactivity"},
      {"sequence": "QVQLVESGGGLVQAGGSLRLSCAASGSIDSKYTMGWYRQAPGKERELVAAIRGSGVRTYYADSVKGRFTISRDNAKNTVYLQMNSLKPEDTAVYYCAKVVYRGKVALWISSTAGSDYWGQGTQVTVSS", "polyreactivity (PSR sort gate)": "low polyreactivity"},
      {"sequence": "QVQLVESGGGLVQAGGSLRLSCAASGSIFAANAMGWYRQAPGKERELVADITRGDGTNYADSVKGRFTISRDNAKNTVYLQMNSLKPEDTAVYYCAAEPSQRYPWSGYDYWGQGTQVTVSS", "polyreactivity (PSR sort gate)": "low polyreactivity"},
      {"sequence": "QVQLVESGGGLVQAGGSLRLSCAASGSIFAANAMGWYRQATGKESELVAAISWSGGSTYADSVKGRFTISRDNAKNTVYLQMNSLKPEDTAVYYCNAFVYVGTGRGYDTLDYWGQGTQVTVSS", "polyreactivity (PSR sort gate)": "low polyreactivity"},
      {"sequence": "QVQLVESGGGLVQAGGSLRLSCAASGSIFAFNAMGWYRQAPGKERELVAAITRSGGRTFYADSVKGRFTISRDNAKNTVYLQMNSLKPEDTAVYYCAASEWRFSSYGGVKYYVEYDYWGQGTQVTVSS", "polyreactivity (PSR sort gate)": "high polyreactivity"},
      {"sequence": "QVQLVESGGGLVQAGGSLRLSCAASGSIFAFNAMGWYRQAPGKERELVAAITSGGNTYYADSVKGRFTISRDNAKNTVYLQMNSLKPEDTAVYYWATVFSVQGWYFGMNYWGQGTQVTVSS", "polyreactivity (PSR sort gate)": "low polyreactivity"},
      {"sequence": "QVQLVESGGGLVQAGGSLRLSCAASGSIFAFNAMGWYRQAPGKERELVAGITISDSTNYADSVKGRFTISRDNAKNTVYLQMNSLKPEDTAVYYCNADYEQYVYWYWFIKYDYWGQGTQVTVSS", "polyreactivity (PSR sort gate)": "low polyreactivity"},
      {"sequence": "QVQLVESGGGLVQAGGSLRLSCAASGSIFAGNAMGWYRQAPGKERELVAAITFSAGRTSYADSVKGRFTISRDNAKNTVYLQMNSLKPEDTAVYYCAARYRTDYYPEYDYWGQGTQVTVSS", "polyreactivity (PSR sort gate)": "low polyreactivity"},
      {"sequence": "QVQLVESGGGLVQAGGSLRLSCAASGSIFAGNAMGWYRQPPGKERELVASISWRGGSTYYADSVKGRFTISRDNAKKTVYLQMNSLKPEDTAVYYCNADLVLFPLTWPYYYWGQGTQVTVSS", "polyreactivity (PSR sort gate)": "low polyreactivity"},
      {"sequence": "QVQLVESGGGLVQAGGSLRLSCAASGSIFAGYAMGWYRQAPGKERELVAAISWSGGRTYYADSVKGRFTISRDNAKNTVYLQMNSLKPEDTAVYYCAALYIYRTYAALSRYDYWGQGTQVTVSS", "polyreactivity (PSR sort gate)": "high polyreactivity"},
      {"sequence": "QVQLVESGGGLVQAGGSLRLSCAASGSIFALNVMGWYRQAPGKEREFVAAISVRSGSTYYADSVKGRFTISRDNAKNTVYLQMNSLKPEDTAVYYCAARTSRFWRGGGLDYWGQGTQVTVSS", "polyreactivity (PSR sort gate)": "high polyreactivity"},
      {"sequence": "QVQLVESGGGLVQAGGSLRLSCAASGSIFAPNAMGWYRHAPGKERELVAAISRSGGRTYYADSVKGRFTISRDNAKNTVYLQMNSLKPEDTAVYYCAADYKHQRTYGSWGQGTQVTVSS", "polyreactivity (PSR sort gate)": "high polyreactivity"},
      {"sequence": "QVQLVESGGGLVQAGGSLRLSCAASGSIFAPNAMGWYRQAPRKEREFVAGITQSGTSTYADSVKGRFTISRDNAKNTVYLQMNSLKPEDTAVYYCAAEYYYGYWYGYIISYDYWGQGTQVTVSS", "polyreactivity (PSR sort gate)": "high polyreactivity"},
      {"sequence": "QVQLVESGGGLVQAGGSLRLSCAASGSIFARYAMGWYRQAPGKERELVAAITSGGITNYADSVKGRFTISRDNAKNTVYLQKNSLKPEDTAVYYCAARRSGRVRYDYWGQGTQVTVSS", "polyreactivity (PSR sort gate)": "high polyreactivity"},
      {"sequence": "QVQLVESGGGLVQAGGSLRLSCAASGSIFARYAMGWYRQAPGKERELVAAITYSGGSTYYADSVKGRFTISRYNAKNTVYLQMNSLKPEDTAVYYCALRSGYGRWYPYDYWGQGTQVTVSS", "polyreactivity (PSR sort gate)": "high polyreactivity"},
      {"sequence": "QVQLVESGGGLVQAGGSLRLSCAASGSIFASNAMGWYRQAPGKEREFVAAIYWSGTRTYYADSVKGRFTISRDNAKNTVYLQLKSLKPEDTAVYYCAALTVLRNDYWGQGTQVSVSS", "polyreactivity (PSR sort gate)": "low polyreactivity"},
      {"sequence": "QVQLVESGGGLVQAGGSLRLSCAASGSIFASNAMGWYRQAPGKERELVAAIDDDGSTDYADSVKGRFTISRDNAKNTVYLQMNSLKPEDTAVYYCAVVTFWWGWTKYRGGFYWGQGTQVTVSS", "polyreactivity (PSR sort gate)": "low polyreactivity"},
      {"sequence": "QVQLVESGGGLVQAGGSLRLSCAASGSIFASNAMGWYRQAPGKQWELVAAINSGTRTKYADSVKGRFTISRDNAKNTVYLQMNSRKPEDTAVYYCAARFKGERGPAHYYWGQGTQVTVSS", "polyreactivity (PSR sort gate)": "high polyreactivity"},
      {"sequence": "QVQLVESGGGLVQAGGSLRLSCAASGSIFATNAMGWYRQAPGKERELGASSSSGGGSTYYADSVKGRFTISRDNAKNTVYLQLNSLKPEDTADSYCARRIGPGSRPSWLETWRYPYDYWGQGTQVTVSS", "polyreactivity (PSR sort gate)": "low polyreactivity"},
      {"sequence": "QVQLVESGGGLVQAGGSLRLSCAASGSIFATYAMGWYRQAPGKERELVAAISRSGGSTNYADSVKGRFTISRDNAKNTVYLQMNSLKPEDTAVYYCAAVRPHWYGQGWALYWFEYWGQGTQVTVSS", "polyreactivity (PSR sort gate)": "low polyreactivity"},
      {"sequence": "QVQLVESGGGLVQAGGSLRLSCAASGSIFATYAMGWYRQAPGKERELVADISWNGGSTYYADSVKGRFTISRDNAKNTVYLQMNSLKPEDTAVYYCAVGYWGRFGFRGYGYWGQGTQVTVSS", "polyreactivity (PSR sort gate)": "low polyreactivity"},
      {"sequence": "QVQLVESGGGLVQAGGSLRLSCAASGSIFAVNAMGWYRQAPGKERELVAAISFGGGDTYYADSVKGRFTISRDNAKNTVYLQMNSLKPEDTAVYYCAADVITRGVKYLGQVAYEYWGQGTQVTVSS", "polyreactivity (PSR sort gate)": "low polyreactivity"},
      {"sequence": "QVQLVESGGGLVQAGGSLRLSCAASGSIFAVNAMGWYRQAPGKERELVAAISWRDTGTYYADSVKGRFTISRDNAKNTVYLQMNSLKPEDTAVYYCAADAQVNPYYPDEYWGQGTQVTVSS", "polyreactivity (PSR sort gate)": "low polyreactivity"},
      {"sequence": "QVQLVESGGGLVQAGGSLRLSCAASGSIFAVYAMGRYRPAPGKERELVAASSTDYADSVKGRVTISRDNAKNTVYLQMNSLKPEDTAVYYCAKVGFGIPGGFYYWGHGTQVTVSS", "polyreactivity (PSR sort gate)": "low polyreactivity"},
      {"sequence": "QVQLVESGGGLVQAGGSLRLSCAASGSIFAVYAMGWYRQAPGNERELVAVITRSGGSTYYADSVKGRFTISRDNAKNTVYLQMNSLKPEDTAVYYCAARTGYGYTRYEYWGQGTQVTVSS", "polyreactivity (PSR sort gate)": "high polyreactivity"},
      {"sequence": "QVQLVESGGGLVQAGGSLRLSCAASGSIFAWYAMGWYRQAPGKERELVATITWSGGSTYYADSVKGRFTITRDNAKNTVYLQINSLKPEDTAVYYCAAEVVGIWYDLWYQGDYWGQGTQVTVSS", "polyreactivity (PSR sort gate)": "low polyreactivity"},
      {"sequence": "QVQLVESGGGLVQAGGSLRLSCAASGSIFAYNAMGWYRQAPGKEREFVAAISLSGGRTYYADSVKGRFTISRDNAKNTVYLQMNSLKPEDTAVYYCATDGIRLTRHRDYDYWGQGTQVTVSS", "polyreactivity (PSR sort gate)": "low polyreactivity"},
      {"sequence": "QVQLVESGGGLVQAGGSLRLSCAASGSIFAYNAMGWYRQAPGKEREFVAAISQCGGRTYYADSVKGRFTISRDNAKTTVYLQMNSLKPEDTAVYYCATDGIRLTRHRDYDYWGQGTQVTVSS", "polyreactivity (PSR sort gate)": "low polyreactivity"},
      {"sequence": "QVQLVESGGGLVQAGGSLRLSCAASGSIFAYNTMGWYRQAPGKERELVAAITGRAGSTYYADSVKGRFTISRDNAKNTVYLQMNSLKPEDTAVYYCNAPTWVRGGYDYWGQGTQVTVSS", "polyreactivity (PSR sort gate)": "high polyreactivity"}
    ]}
  ]
}
